In US20250277054A1 (WUXI BIOLOGICS IRELAND, published 2025):
Like-named read-outs stand apart in the source and are kept apart here.

Assays:
[1] = target: T1, human PSMA on human prostate cancer cells (LNCaP, C4-2, 22Rv1) (human, UniProt Q04609 1-750); assay: cell-based or functional assay
[2] = target: T1, human PSMA on human prostate cancer …; assay: cell-based or functional assay; remark: listed apart in the source
[3] = target: T2, Human PSMA.ECD.His (Acro) (human, UniProt Q04609 44-750); assay: ELISA, coated human PSMA protein (His tag)
T2 construct: extracellular domain; Bought protein with His tag; also called human PSMA ECD protein; Human PSMA/FOLH1 protein, His tag
Protocol: (§1) Briefly, 1 μg/mL human PSMA protein (His tag) were coated onto wells in ELISA plate in coating buffer at 4° C. for 16 hours. After washing the plate with 1×PBST once, the plate was blocked by using 200 μL/well 2% BSA for one hour. After washing the plate for three times with 1×PBST, various concentrations of antibodies diluted in 2% BSA (5-fold serially diluted from 200 nM to 0.004096 pM) were added to the wells and the plate was incubated for one hour at ambient temperature. After washing the plate three times with 1×PBST, Goat anti-human-IgG-Fc-HRP (at 1:5000 dilution) was added into wells and incubated for one hour. After washing six times with 1×PBST, 100 μL/well of TMB substrate solution was added into wells and incubated for 5 minutes in dark and then 100 μL/well of 2M HCl was added into wells to stop the reaction. The relative light unit (RLU) was measured at OD₄₅₀ and OD₅₄₀ by SPECTRAMAX M5E. The binding EC₅₀ was calculated by GraphPad Prism 7 software by plotting antibody concentration (x-axis) versus OD₄₅₀₋₅₄₀ (y-axis) and analyzing as: Nonlinear regression (curve fit)-log (agonist) vs. response-Variable slope (four parameters).

[4] = target: T1, human PSMA on human prostate cancer …; assay: flow cytometry on 22Rv1 cells (PSMA low)
Protocol: (§2) After washing twice with 1×PBS/1% BSA/0.1 mM EDTA, Alexa fluor 647-labeled goat anti-human IgG Fc (at 1:500 dilution) was added and the plate was incubated at 4° C. for half an hour in dark. After washing twice with 1×PBS/1% BSA/0.1 mM EDTA, cells were re-suspended in 1×PBS/1% BSA/0.1 mM EDTA, and mean fluorescence intensity (MFI) was measured by a flow cytometer and analyzed by FLOWJO. The binding EC₅₀ was calculated by GraphPad Prism 7 software by plotting antibody concentration (x-axis) versus […] (y-axis) and analyzing as: Nonlinear regression (curve fit)-log (agonist) vs. response-Variable slope (four parameters).

[5] = target: T1, human PSMA on human prostate cancer …; assay: flow cytometry on C4-2 cells (PSMA high)
Protocol: as §2

[6] = target: T1, human PSMA on human prostate cancer …; assay: flow cytometry on LNCaP cells (PSMA high)
Protocol: as §2

[7] = target: T2, Human PSMA.ECD.His (Acro); assay: ELISA, coated human PSMA protein (His tag); remark: listed apart in the source
Protocol: as §1

[8] = target: T3, Mouse PSMA.ECD.His (Acro) (mouse, UniProt O35409 45-752); assay: ELISA, coated mouse PSMA protein (His tag)
T3 construct: extracellular domain; Bought protein with His tag; also called mouse PSMA protein (His tag); Mouse PSMA/FOLH1 protein, His tag
Protocol: (§3) Briefly, 1 μg/mL cynomolgus PSMA protein (His tag) and 2 μg/mL mouse PSMA protein (His tag) were coated onto wells in an ELISA plate in coating buffer at 4° C. for 16 hours. After washing plate with 1×PBST once, the plate was blocked by using 200 μL/well 2% BSA for one hour. […] After washing three times with 1×PBST, Goat anti-human-IgG-Fc-HRP (at 1:5000 dilution) was added and incubated for one hour. After washing six times with 1×PBST, 100 μL/well of TMB substrate solution was added into wells and incubated for 5 minutes in dark and then 100 μL/well of 2M HCL were added into wells to stop the reaction. The relative light unit (RLU) was measured at OD₄₅₀ and OD₅₄₀ by SPECTRAMAX M5E. EC₅₀ was determined as described above.

[9] = target: T4, full-length cynomolgus PSMA on Flp-in CHO cells (WBP3xx042-FlpinCHO.cPro1.B7) (cynomolgus, UniProt A0A2K5VNZ0 1-750); assay: flow cytometry on FlpInCHO-cyno PSMA cells
T4 construct: whole, on cells; also called Cyno PSMA+ CHO cells; FlpInCHO-cyno PSMA
Protocol: WBP3xx042-FlpinCHO.cPro1.B7 (5×10⁴ cells) was incubated with various concentrations of antibodies 4° C. for one hour. After washing twice with 1×PBS/1% BSA/0.1 mM EDTA, secondary antibody, Alexa fluor 647-labeled goat anti-human IgG Fc, was added and the plate was incubated at 4° C. for half an hour in dark. After washing twice with 1×PBS/1% BSA/0.1 mM EDTA, cells were re-suspended in 1×PBS/1% BSA/0.1 mM EDTA. MFI and EC₅₀ were determined as described above.

Cyno PSMA.ECD.His (Acro) [10] = target: T5, Cyno PSMA.ECD.His (Acro) (cynomolgus, UniProt A0A2K5VNZ0 44-750); assay: ELISA, coated cynomolgus PSMA protein (His tag)
T5 construct: extracellular domain; Bought protein with His tag; also called cynomolgus PSMA ECD protein; Cynomolgus PSMA/FOLH1 protein, His tag
Protocol: as §3

Cyno PSMA.ECD.His (Acro) [11] = target: T5, Cyno PSMA.ECD.His (Acro); assay: ELISA, coated cynomolgus PSMA protein (His tag); remark: listed apart in the source
Protocol: as §3

[12] = target: T6, Human CD3δ & CD3ε heterodimer protein (Flag & His Tag) (human, UniProt P04234 22-105; P07766 23-126); assay: SPR (Biacore 8K), antibody captured by anti-human IgG Fc, CD3δ & CD3ε heterodimer injected, 1:1 model
T6 construct: Bought heterodimer with Flag and His tags
Protocol: Each antibody was captured on an anti-human IgG Fc antibody immobilized CM5 sensor chip (Cytiva). human CD3δ & CD3ε heterodimer at different concentrations were injected over the sensor chip at a flow rate of 30 μL/min for an association phase of 120 s, followed by 240 s dissociation. The chip was regenerated by 10 mM glycine (pH 1.5) after each binding cycle.
The sensorgrams of blank surface and buffer channel were subtracted from the test sensorgrams. The experimental data was fitted by 1:1 binding model. Molecular weight of 31 kDa was used to calculate the molar concentration of human CD3δ & CD3ε heterodimer.

[13] = target: T7, Biotinylated Human PSMA/FOLH1 Protein, His, Avitag (human, UniProt Q04609 44-750, biotin label (Avitag)); assay: SPR (Biacore 8K), biotinylated human PSMA captured on streptavidin chip, antibody injected, single-cycle, 1:1 model
T7 construct: Bought protein; also called Human PSMA Protein (His Tag & biotin label)
Protocol: Biotinylated human PSMA was captured on a streptavidin-immobilized CM5 sensor chip (Cytiva). Antibodies at different concentrations were injected over the sensor chip in an injection type of single-cycle at a flow rate of 30 μL/min for an association phase of 180 s, followed by 600-3600 s dissociation. The chip was then regenerated by 10 mM glycine (pH1.5) at the last binding cycle.
The sensorgrams of the blank surface and buffer channel were subtracted from the test sensorgrams. The experimental data were fitted by 1:1 binding model.

T7 sequence (Q04609 44-750 limits assumed): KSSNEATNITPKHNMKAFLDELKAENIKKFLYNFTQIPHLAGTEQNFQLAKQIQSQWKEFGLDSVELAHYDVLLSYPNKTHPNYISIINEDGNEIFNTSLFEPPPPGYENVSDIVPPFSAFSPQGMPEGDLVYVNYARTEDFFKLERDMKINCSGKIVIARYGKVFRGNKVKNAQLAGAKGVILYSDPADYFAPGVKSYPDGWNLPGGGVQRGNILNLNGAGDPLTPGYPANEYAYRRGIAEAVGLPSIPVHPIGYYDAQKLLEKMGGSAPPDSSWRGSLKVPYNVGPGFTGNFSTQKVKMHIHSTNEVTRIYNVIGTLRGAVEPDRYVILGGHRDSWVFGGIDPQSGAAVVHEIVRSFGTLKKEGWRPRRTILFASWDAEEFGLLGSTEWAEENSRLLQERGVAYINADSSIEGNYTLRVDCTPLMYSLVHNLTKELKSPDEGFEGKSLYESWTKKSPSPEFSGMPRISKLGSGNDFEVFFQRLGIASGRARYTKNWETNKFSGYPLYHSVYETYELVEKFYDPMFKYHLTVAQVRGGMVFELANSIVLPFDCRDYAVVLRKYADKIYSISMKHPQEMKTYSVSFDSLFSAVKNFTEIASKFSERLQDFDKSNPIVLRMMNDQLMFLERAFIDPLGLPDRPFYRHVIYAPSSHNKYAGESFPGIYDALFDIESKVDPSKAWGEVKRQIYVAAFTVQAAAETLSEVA
T1 sequence (Q04609 whole entry): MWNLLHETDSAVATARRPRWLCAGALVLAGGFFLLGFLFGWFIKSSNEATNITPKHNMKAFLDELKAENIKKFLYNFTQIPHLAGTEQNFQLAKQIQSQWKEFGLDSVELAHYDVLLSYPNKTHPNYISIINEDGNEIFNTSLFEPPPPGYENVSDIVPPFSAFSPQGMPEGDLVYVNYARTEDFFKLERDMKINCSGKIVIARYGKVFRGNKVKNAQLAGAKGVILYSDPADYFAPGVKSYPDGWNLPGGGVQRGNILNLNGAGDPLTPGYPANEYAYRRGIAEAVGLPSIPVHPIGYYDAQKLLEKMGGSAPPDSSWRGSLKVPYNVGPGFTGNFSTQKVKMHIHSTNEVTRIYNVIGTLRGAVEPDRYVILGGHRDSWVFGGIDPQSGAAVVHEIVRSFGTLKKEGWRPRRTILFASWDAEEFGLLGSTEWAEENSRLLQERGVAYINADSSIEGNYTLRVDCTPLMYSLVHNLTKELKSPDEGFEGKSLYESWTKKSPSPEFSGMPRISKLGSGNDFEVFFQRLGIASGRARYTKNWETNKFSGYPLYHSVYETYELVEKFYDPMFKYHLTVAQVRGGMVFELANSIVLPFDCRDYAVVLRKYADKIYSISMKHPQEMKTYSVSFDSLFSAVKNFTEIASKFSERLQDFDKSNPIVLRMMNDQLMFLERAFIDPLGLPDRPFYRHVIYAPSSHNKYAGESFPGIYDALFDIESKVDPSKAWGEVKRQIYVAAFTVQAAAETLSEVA
T6 sequence (P04234 22-105, stated change not applied, form in doubt, chain 1 of 2): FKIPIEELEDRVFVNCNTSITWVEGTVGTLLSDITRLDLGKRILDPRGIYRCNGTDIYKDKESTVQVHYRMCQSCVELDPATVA
T6 sequence (P07766 23-126, stated change not applied, form in doubt, chain 2 of 2): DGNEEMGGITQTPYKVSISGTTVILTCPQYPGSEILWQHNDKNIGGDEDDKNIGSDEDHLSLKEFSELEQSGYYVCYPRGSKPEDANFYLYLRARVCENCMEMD
T2 sequence (Q04609 44-750): as the sequence (Q04609 44-750 limits assumed) above
T3 sequence (O35409 45-752): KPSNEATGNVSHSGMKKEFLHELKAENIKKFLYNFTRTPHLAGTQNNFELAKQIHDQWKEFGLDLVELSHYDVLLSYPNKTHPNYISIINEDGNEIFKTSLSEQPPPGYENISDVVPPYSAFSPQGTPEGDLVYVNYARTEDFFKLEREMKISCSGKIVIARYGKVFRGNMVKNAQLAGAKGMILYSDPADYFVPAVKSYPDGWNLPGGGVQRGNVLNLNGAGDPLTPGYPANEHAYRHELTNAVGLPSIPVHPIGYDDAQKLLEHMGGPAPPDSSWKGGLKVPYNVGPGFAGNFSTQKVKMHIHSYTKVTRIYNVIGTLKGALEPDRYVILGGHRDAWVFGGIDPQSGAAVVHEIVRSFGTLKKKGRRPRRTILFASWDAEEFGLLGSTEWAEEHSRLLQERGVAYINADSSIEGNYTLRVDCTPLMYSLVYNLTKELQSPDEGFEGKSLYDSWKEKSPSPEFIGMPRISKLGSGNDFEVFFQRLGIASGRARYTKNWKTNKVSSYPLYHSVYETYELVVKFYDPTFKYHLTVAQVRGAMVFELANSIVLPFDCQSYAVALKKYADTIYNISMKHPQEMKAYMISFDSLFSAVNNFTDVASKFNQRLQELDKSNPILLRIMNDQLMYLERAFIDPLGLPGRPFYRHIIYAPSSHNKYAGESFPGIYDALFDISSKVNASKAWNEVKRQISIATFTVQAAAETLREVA

EC50 of IFN-γ release, CD3+ T + C4-2 [2]: ~0.16 nM
EC50 [3]: 0.027 nM
EC50 [4]: 0.29 nM
EC50 [5]: 1.48 nM
EC50 [6]: 0.58 nM
EC50 [7]: 0.03 nM
EC50 [8]: 1.34 nM
EC50 [9]: 3.2 nM
EC50 (Cyno PSMA.ECD.His (Acro) [10]): 0.045 nM
EC50 (Cyno PSMA.ECD.His (Acro) [11]): 0.05 nM
Kd [12]: 60.2 nM
koff [12]: 0.0331 s⁻¹
kon [12]: 550000 M⁻¹ s⁻¹
Kd [13]: 0.0158 nM
koff [13]: 1.39e-05 s⁻¹
kon [13]: 880000 M⁻¹ s⁻¹
B1: W308051-T3U5.E17-61.uIgG4V322 (bispecific antibody)
heavy 1: QVQLVQSGAEVKKPGSSVKVSCKASGFAFTDYYIHWVRQAPGQGLEWMGWISPGNVNTKYNENFKGRVTITADKSTSTAYMELSSLRSEDTAVYYCARDGYSLYYFDYWGQGTLVTVLEDLKNVFPPEVAVFEPSECEISHTQKATLVCLATGFYPDHVELSWWVNGKEVHSGVCTDPQPLKEQPALQDSRYALSSRLRVSATFWQNPRNHFRCQVQFYGLSENDEWTQDRAKPVTQIVSAEAWGRYGPPCPPCPAPEAAGGPSVFLFPPKPKDTLMISRTPEVTCVVVDVSQEDPEVQFNWYVDGVEVHNAKTKPREEQFNSTYRVVSVLTVLHQDWLNGKEYKCKVSNKGLPSSIEKTISKAKGQPREPQVYTLPPCQEEMTKNQVSLWCLVKGFYPSDIAVEWESNGQPENNYKTTPPVLDSDGSFFLYSRLTVDKSRWQEGNVFSCSVMHEALHNHYTQKSLSLSLG
light 1: DIVMTQSPDSLAVSLGERATINCKSSQSLLNSRTRKNYLAWYQQKPGQPPKLLIYWASTRQSGVPDRFSGSGSGTDFTLTISSLQAEDVAVYYCTQSHTLRTFGGGTKVEIKPDIQNPDPAVYQLRDSKSSDKSVCLFTDFDSQTQVSQSKDSDVYITDKCVLDMRSMDFKSNSAVAWSQKSDFACANAFQNSIIPEDTFFCS
heavy 2: EVQLVQSGAEVKKPGESLKISCKASGYSFTTYWIGWVRQMPGKGLELMGIIYPYDSDTRYSPSFQGQVTISADKSINTAYLQWSSLKASDTAMYYCARITGGYLFDYWGQGILVTVSSASTKGPSVFPLAPCSRSTSESTAALGCLVKDYFPEPVTVSWNSGALTSGVHTFPAVLQSSGLYSLSSVVTVPSSSLGTKTYTCNVDHKPSNTKVDKRVESKYGPPCPPCPAPEAAGGPSVFLFPPKPKDTLMISRTPEVTCVVVDVSQEDPEVQFNWYVDGVEVHNAKTKPREEQFNSTYRVVSVLTVLHQDWLNGKEYKCKVSNKGLPSSIEKTISKAKGQPREPQVCTLPPSQEEMTKNQVSLSCAVKGFYPSDIAVEWESNGQPENNYKTTPPVLDSDGSFFLVSRLTVDKSRWQEGNVFSCSVMHEALHNHYTQKSLSLSLG
light 2: QSALTQPPSASGSPGQSVTISCTGTSSDVGGYNYVSWYQQHPGKAPKLMIYEVTKRPSGVPDRFSGSKSGNTASLTVSGLQAEDEADYYCTSYAGSNKYVFGTGTKVTVLGQPKAAPSVTLFPPSSEELQANKATLVCLISDFYPGAVTVAWKADSSPVKAGVETTTPSKQSNNKYAASSYLSLTPEQWKSHKSYSCQVTHEGSTVEKTVAPTECS
notes: CD3xPSMA bispecific; also called WBP308051
IC50 of T cell cytotoxicity, CD3+ T + C4-2 [1]: 0.082 nM
IC50 of T cell cytotoxicity, CD3+ T + LNCaP [1]: 0.037 nM
